From patent US5847088A, “Antibodies specific for platelet-activating factor acetylhydrolase” (ICOS Corporation, priority 1995, dated 1998)

Assay: PAF-AH activity of PAF-AH products expressed in E. coli (hydrolysis of 3H-acetate from [acetyl-3H] PAF)
Format: biochemical
Conditions: for PAF-AH activity: amino acid substitution products expressed in E. coli

Row | Molecule | PAF-AH activity | PAF-AH activity of mutant expression construct (E. coli, control construct lacking the mutation fully active)
1 | C291S: PAF-AH analog, Cys291 mutated to serine (protein) MVPPKLHVLFCLCGCLAVVYPFDWQYINPVAHMKSSAWVNKIQVLMAAASFGQTKIPRGNGPYSVGCTDLMFDHTNKGTFLRLYYPSQDNDRLDTLWIPNKEYFWGLSKFLGTHWLMGNILRLLFGSMTTPANWNSPLRPGEKYPLVVFSHGLGAFRTLYSAIGIDLASHGFIVAAVEHRDRSASATYYFKDQSAAEIGDKSWLYLRTLKQEEETHIRNEQVRQRAKECSQALSLILDIDHGKPVKNALDLKFDMEQLKDSIDREKIAVIGHSFGGATVIQTLSEDQRFRSGIALDAWMFPLGDEVYSRIPQPLFFINSEYFQYPANIIKMKKCYSPDKERKMITIRGSVHQNFADFTFATGKIIGHMLKLKGDIDSNVAIDLSNKASLAFLQKHLGLHKDFDQWDCLIEGDDENLIPGTNINTTNQHIMLQNSSGIEKYN | + (1-10 U/ml/OD600 activity) | –
2 | C407S: PAF-AH analog, cysteine mutated to serine (protein) MVPPKLHVLFCLCGCLAVVYPFDWQYINPVAHMKSSAWVNKIQVLMAAASFGQTKIPRGNGPYSVGCTDLMFDHTNKGTFLRLYYPSQDNDRLDTLWIPNKEYFWGLSKFLGTHWLMGNILRLLFGSMTTPANWNSPLRPGEKYPLVVFSHGLGAFRTLYSAIGIDLASHGFIVAAVEHRDRSASATYYFKDQSAAEIGDKSWLYLRTLKQEEETHIRNEQVRQRAKECSQALSLILDIDHGKPVKNALDLKFDMEQLKDSIDREKIAVIGHSFGGATVIQTLSEDQRFRCGIALDAWMFPLGDEVYSRIPQPLFFINSEYFQYPANIIKMKKCYSPDKERKMITIRGSVHQNFADFTFATGKIIGHMLKLKGDIDSNVAIDLSNKASLAFLQKHLGLHKDFDQWDSLIEGDDENLIPGTNINTTNQHIMLQNSSGIEKYN | +++ (about 20-40 U/ml/OD600 activity) | –
3 | C334S: PAF-AH analog, cysteine mutated to serine (protein) MVPPKLHVLFCLCGCLAVVYPFDWQYINPVAHMKSSAWVNKIQVLMAAASFGQTKIPRGNGPYSVGCTDLMFDHTNKGTFLRLYYPSQDNDRLDTLWIPNKEYFWGLSKFLGTHWLMGNILRLLFGSMTTPANWNSPLRPGEKYPLVVFSHGLGAFRTLYSAIGIDLASHGFIVAAVEHRDRSASATYYFKDQSAAEIGDKSWLYLRTLKQEEETHIRNEQVRQRAKECSQALSLILDIDHGKPVKNALDLKFDMEQLKDSIDREKIAVIGHSFGGATVIQTLSEDQRFRCGIALDAWMFPLGDEVYSRIPQPLFFINSEYFQYPANIIKMKKSYSPDKERKMITIRGSVHQNFADFTFATGKIIGHMLKLKGDIDSNVAIDLSNKASLAFLQKHLGLHKDFDQWDCLIEGDDENLIPGTNINTTNQHIMLQNSSGIEKYN | ++++ (wild type PAF-AH activity of about 40-60 U/ml/OD600) | –
4 | V279F: PAF-AH with phenylalanine for valine at position 279, mutation of PAF-AH deficient patients (protein) MVPPKLHVLFCLCGCLAVVYPFDWQYINPVAHMKSSAWVNKIQVLMAAASFGQTKIPRGNGPYSVGCTDLMFDHTNKGTFLRLYYPSQDNDRLDTLWIPNKEYFWGLSKFLGTHWLMGNILRLLFGSMTTPANWNSPLRPGEKYPLVVFSHGLGAFRTLYSAIGIDLASHGFIVAAVEHRDRSASATYYFKDQSAAEIGDKSWLYLRTLKQEEETHIRNEQVRQRAKECSQALSLILDIDHGKPVKNALDLKFDMEQLKDSIDREKIAVIGHSFGGATFIQTLSEDQRFRCGIALDAWMFPLGDEVYSRIPQPLFFINSEYFQYPANIIKMKKCYSPDKERKMITIRGSVHQNFADFTFATGKIIGHMLKLKGDIDSNVAIDLSNKASLAFLQKHLGLHKDFDQWDCLIEGDDENLIPGTNINTTNQHIMLQNSSGIEKYN | – | no PAF-AH activity
